From patent US20190225650A1, “PEPTIDOMIMETIC MACROCYCLES AND USE THEREOF IN REGULATING HIF1ALPHA” (AILERON THERAPEUTICS, INC., priority 2013, published 2019)
Bridge positions count the residues as written; N and C are the ends. Square brackets hold non-standard residues; d marks the D form. S5 = C=CCCC[C@](C)(N)C(=O)O; Nle = CCCC[C@H](N)C(=O)O

B1: SP-250 (peptide)
peptide: Ac-FIDQAVF[Nle][S5]LVI[S5][Nle]ALL-NH2
modifications: staple 9-13
SMILES: CCCC[C@H](NC(=O)[C@H](Cc1ccccc1)NC(=O)[C@@H](NC(=O)[C@H](C)NC(=O)[C@H](CCC(N)=O)NC(=O)[C@H](CC(=O)O)NC(=O)[C@@H](NC(=O)[C@H](Cc1ccccc1)NC(C)=O)[C@@H](C)CC)C(C)C)C(=O)N[C@@]1(C)CCCC=CCCC[C@@](C)(C(=O)N[C@@H](CCCC)C(=O)N[C@@H](C)C(=O)N[C@@H](CC(C)C)C(=O)N[C@@H](CC(C)C)C(N)=O)NC(=O)[C@H]([C@@H](C)CC)NC(=O)[C@H](C(C)C)NC(=O)[C@H](CC(C)C)NC1=O
B2: SP-39 (peptide)
peptide: Ac-FIDEEVL[Nle][S5]LVI[S5][Nle]ELDRI-NH2
modifications: staple 9-13
SMILES: CCCC[C@H](NC(=O)[C@H](CC(C)C)NC(=O)[C@@H](NC(=O)[C@H](CCC(=O)O)NC(=O)[C@H](CCC(=O)O)NC(=O)[C@H](CC(=O)O)NC(=O)[C@@H](NC(=O)[C@H](Cc1ccccc1)NC(C)=O)[C@@H](C)CC)C(C)C)C(=O)N[C@@]1(C)CCCC=CCCC[C@@](C)(C(=O)N[C@@H](CCCC)C(=O)N[C@@H](CCC(=O)O)C(=O)N[C@@H](CC(C)C)C(=O)N[C@@H](CC(=O)O)C(=O)N[C@@H](CCCNC(=N)N)C(=O)N[C@H](C(N)=O)[C@@H](C)CC)NC(=O)[C@H]([C@@H](C)CC)NC(=O)[C@H](C(C)C)NC(=O)[C@H](CC(C)C)NC1=O
B3: SP-198 (peptide)
peptide: Ac-FIAEXVL[Nle]SLVXA[Nle]AL-NH2
modifications: staple 5-12; not fully specified (residues 5, 12); printed as Ac-FIAE-$r8-VL-Nle-SLV-$-A-Nle-AL-NH2
B4: SP-28 (peptide)
peptide: Ac-FIDEEVLA[S5]LVI[S5]AALDR-NH2
modifications: staple 9-13
SMILES: CC[C@H](C)[C@H](NC(=O)[C@H](Cc1ccccc1)NC(C)=O)C(=O)N[C@@H](CC(=O)O)C(=O)N[C@@H](CCC(=O)O)C(=O)N[C@@H](CCC(=O)O)C(=O)N[C@H](C(=O)N[C@@H](CC(C)C)C(=O)N[C@@H](C)C(=O)N[C@@]1(C)CCCC=CCCC[C@@](C)(C(=O)N[C@@H](C)C(=O)N[C@@H](C)C(=O)N[C@@H](CC(C)C)C(=O)N[C@@H](CC(=O)O)C(=O)N[C@@H](CCCNC(=N)N)C(N)=O)NC(=O)[C@H]([C@@H](C)CC)NC(=O)[C@H](C(C)C)NC(=O)[C@H](CC(C)C)NC1=O)C(C)C
B5: SP-325 (peptide)
peptide: Ac-LLQ[S5]EEL[S5]RALDQVNIDE[S5]VL[Nle][S5]LVIE[Nle]G-NH2
modifications: staple 19-23, 4-8
SMILES: CCCC[C@H](NC(=O)[C@H](CCC(=O)O)NC(=O)[C@@H](NC(=O)[C@@H](NC(=O)[C@H](CC(C)C)NC(=O)[C@]1(C)CCCC=CCCC[C@](C)(NC(=O)[C@H](CCC(=O)O)NC(=O)[C@H](CC(=O)O)NC(=O)[C@@H](NC(=O)[C@H](CC(N)=O)NC(=O)[C@@H](NC(=O)[C@H](CCC(N)=O)NC(=O)[C@H](CC(=O)O)NC(=O)[C@H](CC(C)C)NC(=O)[C@H](C)NC(=O)[C@H](CCCNC(=N)N)NC(=O)[C@]2(C)CCCC=CCCC[C@](C)(NC(=O)[C@H](CCC(N)=O)NC(=O)[C@H](CC(C)C)NC(=O)[C@H](CC(C)C)NC(C)=O)C(=O)N[C@@H](CCC(=O)O)C(=O)N[C@@H](CCC(=O)O)C(=O)N[C@@H](CC(C)C)C(=O)N2)C(C)C)[C@@H](C)CC)C(=O)N[C@@H](C(C)C)C(=O)N[C@@H](CC(C)C)C(=O)N[C@@H](CCCC)C(=O)N1)C(C)C)[C@@H](C)CC)C(=O)NCC(N)=O

Target: T1, His6-tagged p300 (AA 323-423) (UniProt Q09472 323-423)
T1 construct: range 323-423; also called p300-CH; not shown: His6 tag
Assay: TR-FRET HIF1a/p300 displacement; grade = IC50 >700 nM
Experimental: The ability of peptides to displace HIF1α c-terminal trans-activation domain from p300-CH was measured by a TR FRET assay. […] The complex was diluted to 300 nM final in complete assay media and competitor peptides were added. The complete assay media contained 150 mM NaCl (Sigma +S5150 or equivalent), 20 mM HEPES pH 7.4 (Boston Bioproducts, Ashland, Mass.; #BB-2076), 7.5 mM CHAPS (Thermo #28300 or equivalent), and 1 mM DTT. Protein and peptide were incubated at room temperature for 1 hour before the addition of anti-Flag-K and anti-6×HIS-D2 (CisBio, Bedford Mass.) HTRF reconstitution buffer (50 mM Phosphate pH 7, 0.8 Potassium Flouride, BSA 0.2%)¹ to a final concentration of 0.5 μM and 4 nM respectively. The reaction continued for an additional two hours at room temperature. The reaction was read on a TECAN F500 plate reader with settings recommended by CisBio. The ratio of donor to acceptor fluorescence was calculated. The resulting data was analyzed with Graphpad Prism 5.0. IC50 values were calculated for both proteins using the One Site Fit-LogIC50 equation and presented in the column “IC₅₀ (nM) (HIF1α_p300 Displacement+CHAPS)” of Table 6. ¹ Cisbio USA, Bedford, Mass.; 61HISDLB (lot 007A), 61FG2KLB (024A), HTRF Buffer (62RB3RDF)

T1 sequence (Q09472 323-423 limits assumed): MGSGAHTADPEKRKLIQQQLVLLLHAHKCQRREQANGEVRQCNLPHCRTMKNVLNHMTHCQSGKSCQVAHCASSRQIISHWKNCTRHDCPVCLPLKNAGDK

IC50, > 700 nM:
B1, B2, B3, B4, B5
